Test results as given in paper PMC5510004, “Recruitment and positioning determine the specific role of the XPF‐ERCC1 endonuclease in interstrand crosslink repair”.
Numbering of substitutions follows the chain as printed.

Key:
[1] = target: T1, XPF R670S;ERCC1 wild type (hsERCC1) (Xenopus laevis;Homo sapiens?, UniProt A0A8J0PXV9;P07992 1-897;1-297, R670S|); assay: fluorescence anisotropy; 2 mM Ca2+; comparable to wild type; 25 mM Hepes pH 8.0, 15% glycerol, 0.1 mg/ml BSA, 2 mM CaCl2, 10 nM DNA, 1 h at room temperature; conditions: protein: recombinant;recombinant; tags: FLAG;His; copies: 1;1; label: 5'-FAM on F1; three strands 1:1:1
T1 sequence 1: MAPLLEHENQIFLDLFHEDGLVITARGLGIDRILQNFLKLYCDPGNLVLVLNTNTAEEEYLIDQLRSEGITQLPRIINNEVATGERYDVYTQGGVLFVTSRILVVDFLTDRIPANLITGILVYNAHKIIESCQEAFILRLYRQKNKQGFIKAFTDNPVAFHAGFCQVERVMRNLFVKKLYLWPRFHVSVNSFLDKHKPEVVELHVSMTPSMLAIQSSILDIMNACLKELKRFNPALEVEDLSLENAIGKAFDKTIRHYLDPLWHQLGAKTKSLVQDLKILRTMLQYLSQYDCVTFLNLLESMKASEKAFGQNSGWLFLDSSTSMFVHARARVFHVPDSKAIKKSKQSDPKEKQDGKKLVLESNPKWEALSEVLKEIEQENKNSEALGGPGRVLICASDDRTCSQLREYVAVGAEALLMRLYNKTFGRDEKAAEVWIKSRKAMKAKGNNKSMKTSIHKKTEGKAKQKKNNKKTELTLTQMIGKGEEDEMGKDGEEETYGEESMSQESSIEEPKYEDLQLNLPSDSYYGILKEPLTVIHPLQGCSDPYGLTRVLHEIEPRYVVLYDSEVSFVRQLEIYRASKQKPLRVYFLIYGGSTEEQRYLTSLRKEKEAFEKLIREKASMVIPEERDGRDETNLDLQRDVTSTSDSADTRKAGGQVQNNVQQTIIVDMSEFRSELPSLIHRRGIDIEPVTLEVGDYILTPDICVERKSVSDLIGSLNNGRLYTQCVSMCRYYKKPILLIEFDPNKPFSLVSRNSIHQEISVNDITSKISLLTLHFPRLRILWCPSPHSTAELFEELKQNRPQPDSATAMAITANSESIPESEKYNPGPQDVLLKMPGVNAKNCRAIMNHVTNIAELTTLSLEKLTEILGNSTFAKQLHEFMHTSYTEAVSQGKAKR
T1 sequence 2: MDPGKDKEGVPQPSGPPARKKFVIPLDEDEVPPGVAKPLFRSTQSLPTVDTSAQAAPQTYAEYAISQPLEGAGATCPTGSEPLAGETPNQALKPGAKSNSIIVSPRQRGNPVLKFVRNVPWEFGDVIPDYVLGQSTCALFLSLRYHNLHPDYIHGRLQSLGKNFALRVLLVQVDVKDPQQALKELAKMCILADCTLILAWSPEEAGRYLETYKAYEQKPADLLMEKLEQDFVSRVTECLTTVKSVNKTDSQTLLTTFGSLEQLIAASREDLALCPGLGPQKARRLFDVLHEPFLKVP

[2] = target: T2, XPF S767F;ERCC1 wild type (hsERCC1) (Xenopus laevis;Homo sapiens?, UniProt A0A8J0PXV9;P07992 1-897;1-297, S767F|); assay: as above; conditions: protein: recombinant;recombinant; tags: FLAG;His; copies: 1;1; label: 5'-FAM on F1; three strands 1:1:1
T2 sequence 1: T1 sequence 1 with S670R, S767F
T2 sequence 2: T1 sequence 2

B1: 3' flap DNA substrate (F1+F2+F3) (dsDNA)
DNA 1: CGCGATGCGGATCCAA
DNA 2: CCTAGACTTAAGAGGCCAGACTTGGATCCGCATCGC
DNA 3: GGCCTCTTAAGTCTAGG
- binding result [1]: binds
- binding result [2]: binds
